Variation in antibody binding relative to reference UFV172561 data for 1 substance are collected here from patent US20230250135A1.

The target in this experiment is trimeric stem polypeptides with H7 like residues at the beta2/beta3 loop, A-helix and lower part of the stem (FIG. 13A). In words: Binding-AlphaLISA, Expi293F supernatant, normalized to UFV172561.

Sequence of CR9114 (antibody) (VH): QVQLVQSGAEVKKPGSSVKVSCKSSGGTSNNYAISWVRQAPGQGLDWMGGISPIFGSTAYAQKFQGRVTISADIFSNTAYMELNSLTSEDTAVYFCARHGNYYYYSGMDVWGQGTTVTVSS
Sequence of CR9114 (antibody) (VL): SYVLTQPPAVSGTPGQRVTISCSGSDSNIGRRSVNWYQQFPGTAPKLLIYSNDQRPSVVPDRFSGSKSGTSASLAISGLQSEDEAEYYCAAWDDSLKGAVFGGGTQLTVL

As to CR9114 (antibody), the variation in antibody binding relative to reference UFV172561 was determined as 20%.
